Experiment: label from the status in PepcDB records

| Sequence | protein production |
| --- | --- |
| GYTPQQLDSMVRKQDWMFLLSDRVKRSAMSLNEREKSEKYVFSFPFTKSPKDAVSGGIIKGQNLANLFTELTVGYHDSVDFNKLPIPFACVSQNIVNGEQIVFHNGILATAMRASMAIPGVFTPVRKDSMILIDGGMINNYPVDVARSMGADIIIGVDVQNNLKGID | failed |
| MKKFNIKSLTLLIVLLPLIVNANNIDSHLLEQNDIAKYVAQSDTVGSFFERFSALLNYPIVVSKQAAKKRISGEFDLSNPEEMLEKLTLLVGLIWYKDGNALYIYDSGELISKVILLENISLNYLIQYLKDANLYDHRYPIRGNISDKTFYISGPPALVELVANTATLLDKQVSSIGTDKVNFGVIKLKNTFVSDRTYNMRGEDIVIPGVATVVERLLNNGKALSNRQAQNDPMPPFNITQKVSEDSNDFSFSSVTNSSILEDVSLIAYPETNSILVKGNDQQIQIIRDIITQLDIAKRHIELSLWIIDIDKSELNNLGVNWQGTASFGDSFGASFNMSSSASISTLDGNKFIASVMALNQKKKANVVSRPVILTQENIPAIFDNNRTFYVSLVGERNSSLEHVTYGTLINVIPRFSSRGQIEMSLTIEDGTGNSQSNYNYNNENTSVLPEVGRTKISTIARVPQGKSLLIGGYTHETNSNEIISIPFLSSIPVIGNVFKYKTSNISNIVRVFLIQPREIKESSYYNTAEYKSLISEREIQKTTQIIPSETTLLEDEKSLVSYLNY | failed |
| MANDIDRAGVAKAYARWAPIYDLVFGKVFDSGRQSTIAVADAIGGRVLDVGVGTGLSLSDYSKTTRLCGVDISEPMLRKAHERVRTLNLSNVDVLAVMDAKNLAFPANYFDAVVAQYVITAVPDPEATLDDFIRVLKPGGELILVNHIGAESGPRKLFELAFSPIARRLGWRPEFPWQRLVNWAARHRGVELAERRPMPPMGHFSLIRYRKLLEHHHHHH | failed |
| SYLPKHESVTLKNGLQVVSVPLENKTGVIEVDVLYKVGSRNETMGKSGIAHMLEHLNFKSTKNLKAGEFDKIVKRFGGVSNASTSFDITRYFIKTSQANLDKSLELFAETMGSLNLKEDEFLPERQVVAEERRWRTDNSPIGMLYFRFFNTAYVYHPYHWTPIGFMDDIQNWTLKDIKKFHSLYYQPKNAIVLVVGDVNSQKVFELSKKHFESLKN | failed |
| MKVRAIKSFLVTTMAMTFLVSMGQGSILTKANTINNMKYVTEAFGAIPTEEQVSYQKEELTAFIHFGVNTFTGREWGDGTENPEIFNPTNLDADQWVKTLADAGFGRVILTAKHHDGFCLWDSAYTKHDVASSPWKNGKGDVVKEVSEACAKYNIKFGVYLSPWDQNSEHYGEGNGGDYNEFYMNQLRELLTNYGPIAEVWMDGAKGSNVKQEYNFEEWFALIKELQPECLIFSPQGPDIRWIGNEKGYAGEPCWSTIDIEKMKERENPTYLNNGEEGGPDWVVGESDVSIRPGWFYHESQDNEVKSLEKMMDIYFKSIGRNSVLLLNVPPNKEGKLHENDVNRLKEFGETIKELFNDDLALNKEVIVDGFANRDETYGANKIVDGDYDTYWAPDNSSKTGTIEIDLGESKEFDVISLQEYIPLGQRVSSFNVEVLQGENWNKVYEGKTIGYKRLVRIAPTKGEKIRINITGSLEVPLINNVGVYKQPTSIELPSGPPAGLKVLNDDNKGNELEQFNFSDGWVYETIHGENDLGGDAHYTSKTNATVNIKFNGTKFFLSGTKDSGHGIMEISIDGENPVEVDLYSPNRKSKEIVFESEDLSDGEHEVTVKCTGRKNSSSRGTAAHIDGAYVLDNGGKGMVEFEKVGYEVSENIGTATFKVIRKGGSNGKLEVNYDTLAGTALNGVDYQTWSGTLAFNEGETEKTFDITIIDDKEKEEPKEFYLKLSDPIGGILGFNSRATVTINDDEQIK | failed |
| MEKLLTVFTPTYNRVHTLHKCYESLKNQSCKDFKWLIIDDGSTDGTKDVVKRWIHEKNDFEITYIYQSNKGMHGAHNTAYENIDTELNICIDSDDYMPRDAVEKINKNWNRVKHNKKISGLVGLDSYENGDVIGKKFPEGLKEATLFEINNKYKIPGDKKLVYRSELTKKFPYPIFEGEKYVGLAYKYYKLDEEHRLALINDILCVVEYLEDGSSKNMIKQYKNNPKGFAFYRIENIKNSKATLKFKFKESIHYVASSFISKNKNFLIESPEKILTLLSIPMGMLLYLYIKIKG | failed |
| KLLAITSCPNGIAHTYMAAENLQKAADRLGVSIKVETQGGIGVENKLTEEEIREADAIIIAADRSVNKDRFIGKKLLSVGVQDGIRKPEELIQKALNGDIPVY | not failed |
| MLDSRQAVFFRFFFGVLPQSGRGQVMTELARTIVAGVGGADNIVSLMHCATRLRFKLKDESKAQAEVLKKTPGIIMVVESGGQFQVVIGNHVADVFLAVNSVAGLGEKAQQAPENDDKGNLLNRFVYVISGIFTPLIGLMAATGILKGMLALALTFQWTTEQSGTYLILFSASDALFWFFPIILGYTAGKRFSGNPFTAMVIGGALVHPLILTAFENGQKVDALGLDFLGIPVTLLNYSSSVIPIIFSAWLCSILERRLNAWLPSAIKNFFTPLLCLMVITPITFLLVGPLSTWISELIAAGYLWLYQAVPAFAGAVMGGFWQIFVMFGLHWGLIPLIINNFTVLGYDTMIPLLMPAIMAQVGAALGVFLCERDAQKKVVAGSAALTGLFGITEPAVYGVNLPRKYPFVIACISGALGATIIGYAQTKVYSFGLPGIFTFMQTIPSTGIDFTVWASVIGGVIAIGCAFVGTVMLHFITAKRQSAQVAQQEKTPEVITPEQGGICSPMTGEIVPLIHVADTTFASGLLGKGIAIMPSVGEVRSPVAGRIASLFATLHAIGIESDDGVEILIHVGIDTVKLDGKFFSAHVNVGDKVNTGDRLISFDIPAIREAGFDLTTPVLISNSDDFTDVLPHGTAQINAGEPLLSIIR | failed |
| MPYERKIINDPVFGFINIPKGLLYDIVRHPLLQRLTRIKQVGLSSVVYPGAQHTRFQHSLGAFYLMSEAITQLTSKGNFIFDSEAEAVQAAILLHDIGHGPFSHVLEDTIVQGVSHEEISLMLMERMNKEMNGQLSLAIQIFKDEYPKRFLHQLVSGQLDMDRLDYLRRDSFYTGVTEGNIGSARIIKMLDVADDRLVIESKGIYSIENFLTARRLMYWQVYLHKTSVAYERMLISTLLRAKELASQGVELFASPALHFFLYNDINHTEFHNNPDCLENFIQLDDNDIWTALKVWSNHPDKVLSTLSLGMINRNIFKVENSAEPIGEDRIKELTLQISQQLGITLSEANYFVSTPSIEKNMYDPADDSIDIIYKDGTIKNIAEASDMLNISLLSKKVKKYYLCYQRLHR | not failed |
| MSLGNNSAKGTATGNATALWRNAQLATLNPAMDGIGAVENAVIAVRNGRIAFAGPESDLPDDLSTADETTDCGGRWITPALIDCHTHLVFGGNRAMEFEMRLNGATYEEIAKAGGGIVSSVRDTRALSDEVLVAQALPRLDTLLSEGVSTIEIKSGYGLDIETELKMLRVARRLETLRPVRIVTSYLAAHATPADYKGRNADYITDVVLPGLEKAHAEGLADAVDGFCEGIAFSVKEIDRVFAAAQQRGLPVKLHAEQLSNLGGAELAASYNALSADHLEYLDETGAKALAKAGTVAVLLPGAFYALREKQLPPVQALRDAGAEIALATDCNPGTSPLTSLLLTMNMGATLFRMTVEECLTATTRNAAKALGLLAETGTLEAGKSADFAIWDIERPAELVYRIGFNPLHARIFKGQKVSPEGHHHHHH | not failed |
| MSLLFLAMAPKPKPWVQTEGPEKKKGRQAGREEDPFRSTAEALKAIPAEKRIIRVDPTCPLSSNPGTQVYEDYNCTLNQTNIENNNNKFYIIQLLQDSNRFFTCWNRWGRVGEVGQSKINHFTRLEDAKKDFEKKFREKTKNNWAERDHFVSHPGKYTLIEVQAEDEAQEAVVKVDRGPVRTVTKRVQPCSLDPATQKLITNIFSKEMFKNTMALMDLDVKKMPLGKLSKQQIARGFEALEALEEALKGPTDGGQSLEELSSHFYTVIPHNFGHSQPPPINSPELLQAKKDMLLVLADIELAQALQAVSEQEKTVEEVPHPLDRDYQLLKCQLQLLDSGAPEYKVIQTYLEQTGSNHRCPTLQHIWKVNQEGEEDRFQAHSKLGNRKLLWHGTNMAVVAAILTSGLRIMPHSGGRVGKGIYFASENSKSAGYVIGMKCGAHHVGYMFLGEVALGREHHINTDNPSLKSPPPGFDSVIARGHTEPDPTQDTELELDGQQVVVPQGQPVPCPEFSSSTFSQSEYLIYQESQCRLRYLLEVHL | not failed |
